Measured values taken from the supplement of paper PMC9170038.

System: MS2 coat protein
Test: apparent KD of MS2 coat protein; designed switch direction (-1 OFF switch, 1 ON switch): 1; higher = weaker reporter binding
Outline: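 On Illumina chips, designed RNA switches with common flanks were made by stalled E. coli RNA polymerase. Titrations with SNAP-549-labelled MS2 coat protein, doubling from 0.7 or 1.5 nM to 3 µM, were done with no input, with 200 uM small-molecule ligand, or with an oligonucleotide input. Apparent KD is the median per design over clusters, from curve fits of normalised cluster fluorescence.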

[1] = input ligand: microRNA oligo, concentration not stated
[2] = Eterna round: R95, input ligand: FMN 200 uM
[3] = Eterna round: R95, input ligand: microRNA oligo, concentration not stated
[4] = Eterna round: R95, input ligand: none

Sequence | apparent KD of MS2 coat protein (input ligand: FMN 200 uM) [µM] | apparent KD of MS2 coat protein [1] [µM] | apparent KD of MS2 coat protein (input ligand: none) [µM] | apparent KD of MS2 coat protein [2] [µM] | apparent KD of MS2 coat protein [3] [µM] | apparent KD of MS2 coat protein [4] [µM]
GGACGUCAAUAUGAAUUCCCACAUGAGGAUCACCCAUGUCAUGAGGAUAUGGAUCCUAAUUGGAUCCAGAAGGCAUGGACGUCC [Fiskers NG3ss - 37] (Eterna round: R96, puzzle: Same State NG 3) | 0.0178 | 0.013 | 0.0178 |  |  | 
UGUUGUUAAUUAGGAUAUGGUCACAUGAGGAUCACCCAUGUAAUGUCGAUGCUAUGUGGAUCUGAUCAGAAGGAAUGGCUAACA [SameState NG2 #96] (Eterna round: R96, puzzle: Same State NG 2) | 0.108 | 0.105 | 0.137 |  |  | 
GAGUGAUGGGUUAGUAACUGCUGGGAAGGACAUGAGGAUCACCCAUGUGAGUAACGAGCUUGUGCUCGUCUUAUAAG [JR_SHM208A_Sub022] (puzzle: Sensor for hsa-mir-208a) |  |  |  | 0.388 | 0.192 | 0.425
UCAAGCUUUUUGCUCGUUUUAUGUGUUGAACAUGAGGAUCACCCAUGUAUUGUACGAUCCAGUUAGAUGGUAAUUUG [JR_SHM208A_Sub041] (puzzle: Sensor for hsa-mir-208a) |  |  |  | 0.0625 | 0.14 | 0.0798
AGAUCAUGACGAGGAUAUCCGACAUGAGGAUCACCCAUGUAUGUUGGAGGACGCGUACGUCCAAUGGAGAAGGCGUCGUGGUCA [JL SSNG2 1.04] (Eterna round: R96, puzzle: Same State NG 2) | 0.0136 | 0.0118 | 0.0149 |  |  | 
AGGUAACAUGAGGAUCACCCAUGUAAGGUGAACGUAGGAUAUCGAGGAGGUAGAGUAGGUCGAGAAGGACGAGAAG [JR_SS1_Sub094] (puzzle: Same State 1) |  |  |  | 0.139 | 0.1 | 0.127
AAUUAAUUAAUUAAGUACAUGAGGAUCACCCAUGUAAGUGAUCAGGAUAUCAGCUCGAUUAGAGCUGAGAAGGGAUCCAUGUAC [SSNG3/15-A2] (Eterna round: R96, puzzle: Same State NG 3) |  | 0.4 |  |  |  | 
ACAUGAGAGAAAGGAUAUCUUGUACCUACAUGUGACAUGAGGAUCACCCAUGUGGUAAGUAUGAGAGAGAAGGUUCAGAUAUGU [Equivalence 33 - Jieux - Same State NG 2] (Eterna round: R96, puzzle: Same State NG 2) | 0.0159 | 0.0258 | 0.0298 |  |  | 
GCGAGCGUACUUGCAGACAUGAGGAUCACCCAUGUAACUGGACAGGAUAUGGUACCGUUUCGGUACCAGAAGGGUUCACUCAUG [JL SSNG3 3.58] (Eterna round: R96, puzzle: Same State NG 3) | 0.388 | 0.119 | 0.176 |  |  | 
UAUGCACAUGAGGAUCACCCAUGUGGUAAGACCACAGGAUAUCACCUCGGACGUGCGAUGUGAGAAGGGUGAUGGU [Same State 1 - Mod of Vinnie Anrelari v.3] (puzzle: Same State 1) |  |  |  | 0.491 | 0.289 | 0.379
ACUUAGUACAAUUUAGAUCUACAUGAGGAUCACCCAUGUACUGAGGAUAUCAGCUCGAUUAGAGCUGAGAAGGCAGUAGUACUA [SSNG3/9-A2] (Eterna round: R96, puzzle: Same State NG 3) | 0.0333 | 0.035 | 0.0539 |  |  | 
CGGCGCUGUCGAGAGGAUAUGCGGUGAUGGACAUGAGGAUCACCCAUGUUAGCGAUAGCAUCACGGUAGAAGGCUCUACGGCUGG [Soteed Omei mod 20] (puzzle: Same State 2) |  |  |  | 0.0107 | 0.0186 | 0.0262
CGCUGUCACGCAGGAUAUGCAUUGGAUUACAAUGCAGAAGGGCGAUUACAUGAGGAUCACCCAUGUGUAGACAGUGAAGAAGAG [MOD JMF Solution 3] (Eterna round: R96, puzzle: Same State NG 1) | 0.0324 | 0.271 | 0.386 |  |  | 
ACAAUCUGGGUAGGAUAUCUAGGAUAUGGGAAAGACUAAGUCUGUAGGUCACCUAACCCAGAUGGAGAGAAGGACCCAACACAC [pwkr ssNG2 2FMN + F9.43] (Eterna round: R96, puzzle: Same State NG 2) | 0.0958 | 0.00394 | 0.202 |  |  | 
GGCUAUCGCGUACGAUAGCUUAAGCAUGUACAUGAGGAUCACCCAUGUCAUGUACAGGCUUUUUGCUCGUCUUAUUG [JL-shm-2.35 JL mod] (puzzle: Sensor for hsa-mir-208a) |  |  |  | 0.517 | 0.017 | 0.467
AAAAUCGCGAUAGGAUAUGGGAAAGGAAGUGUACCAGAAGGAUCAGCGCCGACUGGACAUGAGGAUCACCCAUGUCGAGUCUUA [PowerStrip SSNG 1.2] (Eterna round: R96, puzzle: Same State NG 1) | 0.0422 | 0.0266 | 0.0805 |  |  | 
UUAAAACAUGAGGAUCACCCAUGUCAUCUAAGUCGAGGAUAUGGGCAUAUAAUAUAAGAACCAGAAGGCGAAUAUU [Mat - Same State 1 - Mod of UCT - D26] (puzzle: Same State 1) |  |  |  | 0.113 | 0.0377 | 0.0584
AUUAACUUGAGAGGAUAUGUAGAGGAUCACCCUACAGAAGGCUCGUUAGAGAGGAUAUGUAGAGGAUCACCCUACAGAAGGCUC [pwkr ssNG DX.9] (Eterna round: R96, puzzle: Same State NG 1) | 0.0951 | 0.0824 | 0.0887 |  |  | 
UUUAGUUGCGGGCAGGAUAUGUAUUAAAAUACAUGAGGAUCACCCAUGUGUGGGUAUAACACCCAACAGAAGGGCCAAUCGCGAC [Laonerce - 12] (puzzle: Same State 2) |  |  |  | 0.0172 | 0.154 | 0.165
GGUCCAGCCUGAGCUGGACAAAAGCAUGUACAUGAGGAUCACCCAUGUCAUGUACAAGCUUUUUGCUCGUCUUAAGA [Mat - hsa-mir-208a - 88] (Eterna round: R96, puzzle: Sensor for hsa-mir-208a) | 0.752 | 0.0154 | 0.712 |  |  | 
UGUUGUAUUACAGGAUAUCUAUGAUUUGUAUUUAGAGAAGGGUAUUCACAUGAGGAUCACCCAUGUAUAUACGAGGAAGUUGUG [JMF's solution 62] (Eterna round: R96, puzzle: Same State NG 1) | 0.0675 | 0.0485 | 0.0623 |  |  | 
AGAUGUUAAUCAGGAUAUGGGCACAUGAGGAUCACCCAUGUAAAUUCGAUACUAUGUGGAGACGUCUAGAAGGGAUGGCUAACA [SameState NG2 #84] (Eterna round: R96, puzzle: Same State NG 2) | 0.127 | 0.0822 | 0.137 |  |  | 
AUUUAAUUUACUCAGGAUAUGCAUAGAUAAACAUGAGGAUCACCCAUGUAAUUAUUUUUUAAUAAGUAGAAGGGAGAUUUUUAUU [splinter_arm[switch]] (puzzle: Same State 2) |  |  |  | 0.0549 | 0.0654 | 0.147
AAAGGAUGAUGUUACAUGAGGAUCACCCAUGUAGUGAUAACUAAGGAUAUCUGUUAAAUUAAUUAAGAGAAGGUAGGAUCAUUA [AK SSNG3-V2-8.1] (Eterna round: R96, puzzle: Same State NG 3) | 0.0435 | 0.0458 | 0.0532 |  |  | 
GGUAGGUUACUACCAACACAUGAGGAUCACCCAUGUUAGUGGGAGGAUAUGGUACCUAUUUGGUACCAGAAGGUCCAGUUAAUU [Fiskers NG3ss - 15] (Eterna round: R96, puzzle: Same State NG 3) | 0.131 | 0.161 | 0.435 |  |  | 
AGCCUGGAAGUCCAGGCAAAACAUGAGGAUCACCCAUGUACAUAGGAUAUCGUCUGAAAAGCAGACGAGAAGGGUGACCGAACU [Titedi] (Eterna round: R96, puzzle: Same State NG 3) | 0.687 | 0.0968 | 0.192 |  |  | 
GUGGUGUAGAUACAGGAUAUGUUGCUCGUAACAUGAGGAUCACCCAUGUAUCUAUGAGAUUAAAUGCAGAAGGGUGCACACCACG [Maerveen] (Eterna round: R96, puzzle: Same State 2) | 0.022 | 0.22 | 0.358 |  |  | 
GAUAAACAUGAGGAUCACCCAUGUAAUAAUAUGGGAGGAUAUCAGAAUGUAUGUAUGUAAUGAGAAGGCCUAAUAU [Mat - Same State 1 - Mod of Eli - D71] (puzzle: Same State 1) |  |  |  | 0.0618 | 0.545 | 0.491
GCUACCAAAGAAGCCAACAUGAGGAUCACCCAUGUAUGUUGGUAGGAUAUCGAUUGCAAAGCGAUCGAGAAGGGCUAAGGUAGC [Mat - Same State NG 3 - JL Mod - D84] (Eterna round: R96, puzzle: Same State NG 3) | 0.132 | 0.0931 | 0.0955 |  |  | 
AUAAGUUUGAUGCUCGUCUCUCCGUACAAACAUGAGGAUCACCCAUGUGGUCGGGAAGUAGCCCAGCCAGUAUGGCC [Anriquradi] (puzzle: Sensor for hsa-mir-208a) |  |  |  | 0.0153 | 0.0199 | 0.0171
